Our source for the EC50 values is article PMC10928148.

The target of one assay is Delta variant S protein on plant-produced virus-like particles (SARS-CoV-2 (Delta variant)) (UniProt P0DTC2). Put plainly: ELISA. A general note: An ELISA detects its analyte on a solid surface through an enzyme-linked reagent.
Regarding COVA2-15 IgG (antibody), the EC50 (in general, the concentration at which the effect is half-maximal) is 9.03 nM. In other words, the single-digit nanomolar range.

Consider COVA2-15 monomeric IgA1 (antibody), for which the EC50 turned out to be 1.95 nM.

In turn, COVA2-15 monomeric IgA2 (antibody) displayed an EC50 of 2.06 nM.

Turning to “COVA2-15 secretory IgA1 (from UniProt P01591 23-159; P01833 19-764) (antibody)”, the EC50 is 0.086 nM.

Substance “COVA2-15 secretory IgA2 (from UniProt P01591 23-159; P01833 19-764) (antibody)” displayed an EC50 of 0.542 nM.

Another assay shares this target. The experiment in a line: ELISA. The source holds these as a separate data set.
In turn, COVA2-15 IgG (antibody) yielded an EC50 of 9 nM. This counts as single-digit nanomolar.

Consider “COVA2-15 secretory IgA1 (from UniProt P01591 23-159; P01833 19-603) (antibody)”, for which the EC50 was determined as 0.09 nM.
